Results taken from article PMC6053543 (Nature cell biology, 2016).

T1: recombinant FL-Kank2 (mouse, UniProt Q8BX02 1-843)
T1 sequence (looked up): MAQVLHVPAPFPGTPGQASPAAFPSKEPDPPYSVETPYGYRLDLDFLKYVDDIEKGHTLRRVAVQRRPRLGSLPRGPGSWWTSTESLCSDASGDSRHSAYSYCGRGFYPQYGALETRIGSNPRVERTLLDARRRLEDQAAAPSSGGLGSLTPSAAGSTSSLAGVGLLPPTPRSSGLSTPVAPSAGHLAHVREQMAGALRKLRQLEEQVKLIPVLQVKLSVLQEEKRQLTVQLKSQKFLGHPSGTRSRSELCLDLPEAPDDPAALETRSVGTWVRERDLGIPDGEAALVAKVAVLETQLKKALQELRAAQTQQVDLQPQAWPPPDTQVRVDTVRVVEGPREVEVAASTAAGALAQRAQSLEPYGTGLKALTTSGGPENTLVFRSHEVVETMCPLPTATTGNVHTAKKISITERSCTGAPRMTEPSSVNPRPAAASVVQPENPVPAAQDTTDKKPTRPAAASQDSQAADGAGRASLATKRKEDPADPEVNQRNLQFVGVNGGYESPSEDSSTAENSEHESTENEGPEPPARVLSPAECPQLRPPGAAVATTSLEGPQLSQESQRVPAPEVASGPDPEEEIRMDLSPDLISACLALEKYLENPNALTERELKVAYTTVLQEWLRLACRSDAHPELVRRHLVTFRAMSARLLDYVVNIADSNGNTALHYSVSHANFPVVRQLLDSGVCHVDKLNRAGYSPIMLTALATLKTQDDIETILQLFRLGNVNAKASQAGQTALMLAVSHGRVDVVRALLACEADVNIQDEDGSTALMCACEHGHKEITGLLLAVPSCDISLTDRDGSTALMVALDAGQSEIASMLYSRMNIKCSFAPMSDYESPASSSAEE

B1: GST-tagged Kank2-KN (amino acids 29–72) (domain or fragment, mouse, UniProt Q8BX02 29-72, looked up)
chain: DPPYSVETPYGYRLDLDFLKYVDDIEKGHTLRRVAVQRRPRLGS
B2: Venus-His-Sumo-tagged talin R4–R8 domain (domain or fragment, mouse, UniProt P26039 913-1655, looked up)
chain: LVQRLEHAAKQAAASATQTIAAAQHAASAPKASAGPQPLLVQSCKAVAEQIPLLVQGVRGSQAQPDSPSAQLALIAASQSFLQPGGKMVAAAKASVPTIQDQASAMQLSQCAKNLGTALAELRTAAQKAQEACGPLEMDSALSVVQNLEKDLQEIKAAARDGKLKPLPGETMEKCTQDLGNSTKAVSSAIAKLLGEIAQGNENYAGIAARDVAGGLRSLAQAARGVAALTSDPAVQAIVLDTASDVLDKASSLIEEAKKASGHPGDPESQQRLAQVAKAVTQALNRCVSCLPGQRDVDNALRAVGDASKRLLSDSLPPSTGTFQEAQSRLNEAAAGLNQAATELVQASRGTPQDLARASGRFGQDFSTFLEAGVEMAGQAPSQEDRAQVVSNLKGISMSSSKLLLAAKALSTDPASPNLKSQLAAAARAVTDSINQLITMCTQQAPGQKECDNALRQLETVRELLENPVQPINDMSYFGCLDSVMENSKVLGEAMTGISQNAKNGNLPEFGDAIATASKALCGFTEAAAQAAYLVGVSDPNSQAGQQGLVEPTQFARANQAIQMACQSLGEPGCTQAQVLSAATIVAKHTSALCNSCRLASARTANPTAKRQFVQSAKEVANSTANLVKTIKALDGDFTEENRAQCRAATAPLLEAVDNLSAFASNPEFSSVPAQISPEGRAAMEPIVISAKTMLESAGGLIQTARALAVNPRDPPRWSVLAGHSRTVSDSIKKLITSMRDKA

Legend:
[1] = molecular target: B2; experiment: pull-down
recombinant FL-Kank2 = molecular target: T1, recombinant FL-Kank2; experiment: pull-down

Binder | binding result [1] | binding result (recombinant FL-Kank2)
B1 | binds | 
B2 |  | binds
